By Km is commonly meant the concentration of substrate that gives half-maximal velocity. For orientation: kcat means the number of substrate molecules converted per active site and unit of time at saturation.

For this data set, the system named is O=C(Cc1cccs1)N[C@@H]1C(=O)N2C(C(=O)O)=C(/C=C/c3ccc([N+](=O)[O-])cc3[N+](=O)[O-])CS[C@H]12. In words: purified protein. To be noted: 50 mM NaH2PO4 pH 7.0, 0.1% BSA, 30 °C, 10-100 μM nitrocefin.

“BLA (TEM-1 β-lactamase) (Escherichia coli)”: the Km was determined as 120 ± 3 µM and the kcat came to 1200 ± 30 s⁻¹.

For the origin of these results see publication PMC4748275, “SpyRing interrogation: analyzing how enzyme resilience can be achieved with phytase and distinct cyclization chemistries” (Scientific Reports, 2016).
